These results are taken from the RNAGym collection of RNA variant scans (doi:10.1073/pnas.2313332121).

B1: TPR t1 (parent)
chain: GACCAAUCUGCCCUCAGAGCUCGAGAACAUCUUCGGAUGCAGAGGAGGCAGGCUUCGGUGGCGCGAUAGCGCCAACGUCCUCAACCUCCAAUGCAUCCCACCACAUGAUGAUGCCUGAAGAGCCUUGGUUUUUUG

The variants in the series derive from B1. As to the kind of experiment: polymerase ribozyme fitness, log enrichment relative to wild type (log ratio); higher = more active; in vitro selection for triplet polymerase activity. A digest of the protocol: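 Streptavidin-bead capture of gel-excised extended constructs, followed by RT-PCR, closed a single triplicate in vitro selection round. That round began by annealing PCR-built, transcribed mutant libraries of each subunit of a heterodimeric triplet polymerase ribozyme with a biotinylated primer, the partner subunit and triplets, then incubating them frozen at −7 °C. After Illumina sequencing of inputs and outputs, genotypes needed ≥10 input reads and ≥1 read per output. Fitness is the base-2 logarithm of genotype enrichment over wild-type enrichment, using inverse-variance-weighted replicate averages.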
GACCAAUCUGCUGUCAGAGCUCGAGAACAUCUUCGGAUGCAGAGGAGGCAGGCUUCGGUGGCGCGAUAGCGCCAACGUCCUCAACCUCCAAUGCAUCCCACCACAUGAUGAUGCCUGAAGAGCCUUGGUUUUUUG: the “polymerase ribozyme fitness (log ratio)” value is -0.258. The same measure for GACCAAUCUGCUGUCAGAGCUCGAGAACAUCUUCGGUUGCAGAGGAGGCAGGCGUCGGUGGCGCGAUAGCGCUAACGUCCUCAACCUCCAAUGCAUCCCACCACAUGAUGAUGCCUGAAGAGUCUUGGUUUUUUG: 1.09. The same measure for GACCAAUCUGCUCUCAGAGCUCGAGAACAUCUUCGGAUGCCGAGGAGGCAGGCUUCGGUGGCGCGAUAGCGGCAACGUCCUCAACAUCCAAUGCAUCCCACCACAUGAAGAUGCCUGAAGAGCCUUGGUUUUUUG: -7.19.

As to GACCAAUCUGCUGUCAGAGCUCGAGAACAUCUUCGGAUGCAGAGGAGGCAGGCUUCGGUGGCGCGAUAGCGCCAACGUCCUAAACCUCCAAUGCAUCCCACCACAUGAUGAUGCCUAAAGAGCCUUGGUUUUUUG, the “polymerase ribozyme fitness (log ratio)” value is -2.59. The same measure for GACCAAUCUGCUGUCAGAGCUCGAGAACAUCUUCGGAUGCAGAGGAGGUAGGUUUCGGUGGCGCGAUAGCGCCAACGUCCUCAACCUCCAAUGCAUCCCACCACAUGAUGAUGCCUGAAGAGCCUUAGUUUUUUG: -3.32; for GACCAAUCUGCUCUCAGAGCUCGAGAACAUCUUCGGAUGCGGAGGAGGCAGGCUUCGGUGGCGCGAUAGCGCCAACGUCCUCAACCUCCAAUGCAUCCCACCACAUGAUGAUGCCUGAAGAGCCUUGGUUUUUUG: 0.638. In the case of GACCAAUCUGCUCUCAGAGCUCGAGAACAUCUUCGGAUGCAGAGGAGGCUGGCUUCGGGGGCACGAUAGCGCCAACGUCCUCAACCUCCAAUGCAUCCCACCACAUGAUGAUGCCUGAUGAGCCUUGGUUUUUUG it was -2.52; in that of GACCAAUCUGCUCUCAGAGCUCGAGAACAUCUUCGGAUGCUGAGGCGACAGGCUUCGGUGGCGCGAUAGCGUCAACGUCCUCAACCUACAAUGCAUCCCACUACAUGAUGAUGGUUGAAGAGCCUUGGUUUUUUG, -8.1; in that of GACCAAUCUGCUCUCAGAGCUCGAGAACAUCUUCGGAUGCAGAGGAGGCAGGCUUCGGUGGCGCGAUAGCGCCCACGUUCUCAACCUCCAAUGCAUCCCACCACAUGAUGAUGCCUGAAGUGCCUUGGUUUUUUG, 1.34. GACCAAUCUGCUUUCAGAGCUCGAGAACAUCUUCGGAUGCAGAGGAGGCAGGCUUCGGUGGCGCGAUAGCGCCUACGUCCUCAACCUCCAAUGCAUACCACCACAUGAUGAUGCCUGAAGAGUAUUGGUUUUUUG: the “polymerase ribozyme fitness (log ratio)” value was -4.56. For the variant GACCAAUCUGCUCUCAGAGCUCGAGAACAUCUUCGGAUGCGGAGGAGACAGGCUUCAGUGGCGCGAUAGCGCCAACGUCCUCAACUUCCAAUGCAUCCCACCACAUGAUGAUGCCUGAAGAGCCUUGGUUUUUUG, the “polymerase ribozyme fitness (log ratio)” value was -2.63. Take GACCAAUCUGCUCUCAGAGCUCGAGAACAUCUUCGGAUGCGGAGGAGACAGGCUUCGGUGGCGCGAUAGCGCCAACGUCCUCAACUUCCAAUGCAUCCCACCACAUGAUGAUGCCUGAAGAGCCUUGGUUUUUUG: the “polymerase ribozyme fitness (log ratio)” value is -0.927. Regarding GACCAAUCUGCUCUCAGAGCUCGAGAACAUCUUCGGAUGCUGAGGAGGCAGGCUUCGGUGGCGCGAUAGCGGCAACGUCCUCAACCUCCAAUGCAUCCCACCACAUGAUGAUGCCUGAAGAGCCUUGGUUUUUUG, the “polymerase ribozyme fitness (log ratio)” value is -1.1. The same measure for GACCAAUCUGCUCUCAGAGCUCGAGAACAUCUUCGGCUGCAGAGGAGGCAGGCUUCGGUGGCGCGAUAGCGCCAACGUCCUCAACCUCCAAUGCAUCCCACCACAUGAUGAUACCUGAAGAGGCUUGGUUUUUUG: 0.27; for GACCAAUCUGCUCUCAGAGCUCGAGAACAUCUUCGGAUGCAGAGGAGGCAGGCUUCGGUGGCGCGAUAGCGCCAACGUCCUCAACCUCCAAUGCAUCCCACCACAUGAUGAUGCCUGAAGGGCCUUGGUUUUUUG: 1.82. Take GACCAAUCUGCUCUCAGAGCUCGAGAACAUCUUCGGAUGCAGAGGAGGCAGGCUUCGGUGGCGCGAUAGCGCCAACGUCCUCAACCUCCAAUGCAUCCCACCACAUGAUGAUGCCUGAAGUGCCUUGGUUUUUUG: the “polymerase ribozyme fitness (log ratio)” value amounted to 2.4.

As to GACCAAUCUGCUCUCAGAGCUCGAGAACAUCUUCGGUUGCAGAGGAGGCAGGCUUCGGUGGCGCGAUAACGCCAACGUCCUCAACCUCCAAUGCAUCCCACCACAUGAUGAUGCCUGAAGAGCCUUGUUUUUUUG, the “polymerase ribozyme fitness (log ratio)” value was -5.83. On to GACCAAUCUGCUCUCAGAGCUCGAGAACAUCUUCGGCUGCAGAGGAGGCAGGCUUCGGUGGCGCGAUAGCGCCAACGUCCUCAACCUCCAAUGGAUCCCACCACAUGAUAAUGCCUGAAGAGCCUUGGUUUUUUG, for which the “polymerase ribozyme fitness (log ratio)” value was -3.55.

As to GACCAAUCUGCUCUCAGAGCUCGAGAACAUCUUCGGAUGCAGGGGAGGCAGGCUUCGGUGGCGCGAUAGCGUCAACGUCCUCAACCUCCAAUGCAUCCCACCACAUGAUGAUGCCUGAAGAGACUUGGUUUUUUG, the “polymerase ribozyme fitness (log ratio)” value worked out at 0.368.

For the variant GACCAAUCUGCUCUCAGAGCUCGAGAACAUCUUCGGAUGCUGAGGAGGCAGGCUUCGGUGGCGCGUUAGCGCCAACGUCCUCAACCUCCAAUGCAUCCCACCACAUGAUGAUGCCUGAAGAGCCUUGGUUUUUUG, the “polymerase ribozyme fitness (log ratio)” value was -2.82. For the variant GACCAAUCUGCUCUCAGAGCUCGAGAACAUCUUCGGAUGCAGAGGAGGCAGGCUUCGGUGGCGCGAUAGCGCCAACGUCCUCACCCUCCAAUGCAUCCCACCACAUGAUGAUGCCUGAAGAGCCUUGGUUUUUUG, the “polymerase ribozyme fitness (log ratio)” value amounted to 0.463. Take GACCAAUCUGCUCUCAGAGCUCGAGAACAUCUUCGGAUGCAGUGGAGGCAGGCUUCGGUGGCGCGAUAGCGCCAACAUCCUCAAUCUCCAAUGCAUCCCACCACAUGAUGAAGCCUGAAGAGCCUUGGUUUUUUG: the “polymerase ribozyme fitness (log ratio)” value was -0.51. Take GACCAAUCUGCUCUCAGAGCUCGAGAACAUCUUCGGCUGCAGAGAAGGCAGGCUUCGGUGGCUCGAUAGCGCCAACGUCCUCAACCUCCAAUGCAUCCCACCACAUGAUGAUGCCUGAAGAGCCUUGGUUUUUUG: the “polymerase ribozyme fitness (log ratio)” value was -1.7.

As for GACCAAUCUGCUCUCAGAGCUCGAGAACAUCUUCGGAUGCAGAGGAGGCAGGCUUCGGUGGCGCGAUAGCGCCGACGUCCUCAACCACCAAUGCAUCCCACCACAUGAUGAUGCCUGAAGAGCCUUGGUUUUUUG, the “polymerase ribozyme fitness (log ratio)” value is -0.554. In the case of GACCAAUCUGCUCUCAGAGCUCGAGAACAUCUUCGGAUGCAGAGGCGGCAGGGUUCGGUGGCGCGAUAGCGCCAACGUCCUCAACCUCCAAUGCAUCCCACCACAAGAUGAUGCCUGAAGAGCCUUGGUUUUUUG it was -0.663; in that of GACCAAUCUGCUCUCAGAGCUCGAGAACAUCUUCGGAUGCAGAGGAGGCAGGCUUCGGUGGCGCGAUAGCGCCAACGUCCUCCACCUCCAAUGCAUCCCACCACAUGAUGAUGACUGAAGAGGGUUGGUUUUUUG, -0.26; in that of GACCAAUCUGCUCUCAGAGCUCGAGAACAUCUUCGGUUGCAGAGGAGGCAGGCUUCGGUGGCGCGAUAGCGCCAACGUCCUCAACCUCCAAUGCAUCCCACCACAUGAUGAUGCCUGAAGAGCCUUGGUUUUUUG, 0.327. As to GACCAAUCUGCUCUCAGAGCUCGAGAACAUCUUCGGCUGCAGAGGUGGCAGGCUUCGGUGGAGCGAUAGCGCCAACGUCCUCAACCUCCAAUGCAUCCCACCACAUGAUGAUGCCUGAAGAGCCUUGGUUUUUUG, the “polymerase ribozyme fitness (log ratio)” value is -2.96.

For GACCAAUCUGCUCUCAGAGCUCGAGAACAUCUUCGGAUGCAGAGGUGGCAGGUUUCGGUGGCGCGAUAGCGCCAACGUACUCUACCUCCAAUGCAUCCCACCACAUGAUGAUGCCUGAAGAGCCUUGGUAUUUUG, the “polymerase ribozyme fitness (log ratio)” value was -4.07. In the case of GACCAAUCUGCUCUCAGAGCUCGAGAACAUCUUCGGGUGCAGAGGAGGCAGGCUUCGGUGGCGCGAUAGCGCCAACGUCCUCAACCUCCAAUGCGUCCCACCACAUGAUGAUGCCUGAAGAGCCUUGGUUUUUUG it was -0.754; in that of GACCAAUCUGCUGUCAGAGCUCGAGAACAUCUUCGGUUGCAGAGGAGGCAGGCGUCGGUGGCGCGAUAGCGCCAACGUCAUCAACCUCCAAUGCAUCCCACCACAUGAUGAUGCCUGAAGAGCCUUGGUUUUUUG, -4.65. As for GACCAAUCUGCUCUCAGAGCUCGAGAACAUCUUCGGAUGCAGAGGAGGCAGGCUUCGGUGGCGCGUUAGCGCCAACGACCUCAACCCCCAAUGCAUCCCACCACAUGAUGAUGCCUGAAGAGCCUUGGUUUUUUG, the “polymerase ribozyme fitness (log ratio)” value is -0.338.

As to GACCAAUCUGCUCUCAGAGCUCGAGAACAUCUUCGGAUGCAGAGGAGGCAGGCUUCGGUGGCGCGAUAGCGCCGACGUCCUCCACCUCCAAUGCAUCCCACCACAUGAUGAUGACUGAAGAGGGUUGGUUUUUUG, the “polymerase ribozyme fitness (log ratio)” value was -1.02.

For GACCAAUCUGCUCUCAGAGCUCGAGAACAUCUUCGGAUGCUGAGGAGGCAGGCUUCGGUGGCGCGAUAGCUCCAACGUCCUCAACCUCCAAUGCAUCCCACCUCAUGAUGAUGCCUGUAGAGCCUUGGUUUUUUG, the “polymerase ribozyme fitness (log ratio)” value was -6.98. Take GACCAAUCUGCUCUCAGAGCUCGAGAACAUCUUCGGAUGCAGAGGAGGCAGGCUUCGGUGGCGCGAUAGCGCCAACGUCCUCCACCUCCAAUGCAUCCCACCACAUGAUGAUGCCUGAAGAUCCUUGGUUUUUUG: the “polymerase ribozyme fitness (log ratio)” value was 0.68.

As to GACCAAUCUGCUCUCAGAGCUCGAGAACAUCUUCGGAUGCAGCGGAGGCAGGCUUCGGUGGCGCGAUAGCGACAACGUCCUCAACCUCCUAUGCAUCCCACCACAUGAUGAUGCCUGAAGAGCCUUGGUUUUUUG, the “polymerase ribozyme fitness (log ratio)” value is -0.685. For the variant GACCAAUCUGCUCUCAGAGCUCGAGAACAUCUUCGGAUGCAGAGGCGGCAGGCUUCGGUGGCGCGAUAGCGCCAACGUCCUCAACCUCCAAUGCAUCCCGCCACAUGAUGAUGCCUGAAGAGCCUUGGUUUUUUG, the “polymerase ribozyme fitness (log ratio)” value was -3.74.

With GACCAAUCUGCUCUCAGAGCUCGAGAACAUCUUCGGAUGCAGAGGAGGCAGGCUUCGGUGGCGCGAUAGCGCCAUCGUCCUCAACCUCCAAUGCAUCCCACCACAUGAUGAUGCCUGAAGAGCCUUGGUUUUUUG, the “polymerase ribozyme fitness (log ratio)” value was found to be 0.0801.

Turning to GACCAAUCUGCUCUCAGAGCUCGAGAACAUCUUCGGAUGCAGAGGAGGCAGGCUUCGGUGGCGCGAUAGCGCCAACGUCCUCACCCUCCAAUGCAUCCCACCACAUGAUGAUGCCUGAAUAGCCUUGGUUUUUUG, the “polymerase ribozyme fitness (log ratio)” value was 1.69. For GACCAAUCUGCUCUCAGAGCUCGAGAACAUCUUCGGAUGCAGAGGAGGCAGGCUUCGGUGGCGCGUUAGCGCCAACGUCCUCAACCUCCAAUGCAUCCCACCACAUGAUGAUGCCUGAAGAGACUUGGUUUUUUG, the “polymerase ribozyme fitness (log ratio)” value was found to be 0.936. Consider GACCAAUCUGCUCUCAGAGCUCGAGAACAUCUUCGGAUGCAGAGGAGGCUGGCUUCGGUGGCGCGAUAGCGCCAACGUCCUCAACCUCCAAUGCAUCCCACCACAUGAUGAUGCUUGAAGAGCCUUGGUUUUUUG, for which the “polymerase ribozyme fitness (log ratio)” value was -3.47. The same measure for GACCAAUCUGCUCUCAGAGCUCGAGAACAUCUUCGGAUGCAGAGGAGGCAGGCUUCGGUGGCGCGAUAGCGCCAACGUCCUCACCCUCCAAUGCAUCCCACAACAUGAUGAUGCCUGAAGAGCCUUGGUUUUUUG: -1.99.
